# Laboratory results from publication PMC4446440, “Structural and functional analysis reveals that human OASL binds dsRNA to enhance RIG-I signaling” (Nucleic Acids Research, 2015).
# T1: OLD (OAS-like domain of OASL) wild type (Homo sapiens, UniProt Q15646 1-350)
# T1 sequence: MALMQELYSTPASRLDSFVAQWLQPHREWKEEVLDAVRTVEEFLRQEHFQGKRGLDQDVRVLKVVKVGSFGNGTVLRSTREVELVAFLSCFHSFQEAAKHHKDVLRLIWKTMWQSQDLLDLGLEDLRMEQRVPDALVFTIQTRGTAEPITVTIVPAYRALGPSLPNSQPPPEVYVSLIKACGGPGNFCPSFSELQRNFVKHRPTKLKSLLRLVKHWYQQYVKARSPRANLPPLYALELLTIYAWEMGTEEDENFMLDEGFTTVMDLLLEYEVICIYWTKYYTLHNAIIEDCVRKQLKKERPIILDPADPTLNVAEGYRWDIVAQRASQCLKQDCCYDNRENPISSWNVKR
# B1: full-length OASL (human 2'-5' oligoadenylate synthetase-like protein), recombinant from insect cells (natural protein, UniProt Q15646 1-514, looked up)
# chain: MALMQELYSTPASRLDSFVAQWLQPHREWKEEVLDAVRTVEEFLRQEHFQGKRGLDQDVRVLKVVKVGSFGNGTVLRSTREVELVAFLSCFHSFQEAAKHHKDVLRLIWKTMWQSQDLLDLGLEDLRMEQRVPDALVFTIQTRGTAEPITVTIVPAYRALGPSLPNSQPPPEVYVSLIKACGGPGNFCPSFSELQRNFVKHRPTKLKSLLRLVKHWYQQYVKARSPRANLPPLYALELLTIYAWEMGTEEDENFMLDEGFTTVMDLLLEYEVICIYWTKYYTLHNAIIEDCVRKQLKKERPIILDPADPTLNVAEGYRWDIVAQRASQCLKQDCCYDNRENPISSWNVKRARDIHLTVEQRGYPDFNLIVNPYEPIRKVKEKIRRTRGYSGLQRLSFQVPGSERQLLSSRCSLAKYGIFSHTHIYLLETIPSEIQVFVKNPDGGSYAYAINPNSFILGLKQQIEDQQGLPKKQQQLEFQGQVLQDWLGLGIYGIQDSDTLILSKKKGEALFPAS
# notes: human OASL, full length (printed as 61 kDa); OAS-like domain (residues 1-350) followed by two ubiquitin-like domains; also called OAS-like protein
# B2: 18 bp dsRNA (dsRNA)
# RNA 1: GGCUUUUGACCUUUAUGC
# RNA 2: GCAUAAAGGUCAAAAGCC
# Assays:
# [1] = molecular target: the molecule itself; test: SEC; analytical, Superdex 200 PC3.2/30; OASL run in 50 mM Tris-HCl pH 9, 500 mM NaCl, 10% glycerol, 1.5 mM MgCl2, 1 M urea, 1 mM BME; calibrated with Blue Dextran and albumin
# [2] = molecular target: T1, OLD (OAS-like domain of OASL) wild type; test: EMSA; OLD 2.4 uM, dsRNA 0-8.6 uM, protein stained; 1.5 mM Mg2+; 100 mM DL-malic acid pH 5.9, 200 (unit not given) Na2SO4, 300 mM NaCl, 1.5 mM MgCl2, 2 mM BME, 5% glycerol; 37 C 15 min; native PAGE in 0.5x TBE; conditions: protein: recombinant; tags: C-terminal 6xHis; blunt
Binder,binding result [1],binding result [2]
B1,binds,–
B2,–,binds
